Source: PMC6146036 (Frontiers in Molecular Neuroscience, 2018)
“Also recorded” adds a separate entry of the source.

Experiments:
[1] = biological target: T1, human recombinant choline acetyltransferase (rChAT) (Homo sapiens, UniProt P28329); assay: Fluorometric in vitro ChAT activity assay (human rChAT, CPM read-out); assay type: biochemical; details: for direction of effect on ChAT activity at high concentrations: 0 to 3,800 ng/mL (0–833.3 nM), 1:2 dilutions, two independent experiments, Figure 2C; for difference in slopes of ChAT rate vs gelatin control: 6.4 ng/mL Aβ40 or 0.16 ng/mL Aβ42 (F = 21, p < 0.0001), linear regression; for effect on increases in ChAT activity at the higher Aβ concentration points: 160 and 800 ng/mL Aβ40, 100 ng/mL Aβ42, activity still higher than baseline; for concentration range giving the highest level of ChAT activation in the mixture: Aβ40:Aβ42 10:1 mixture, Figure 5C, with or without gelatin; for effect on ChAT activity at physiological concentrations: CSF concentrations ∼4–6.4 ng/mL Aβ40, ∼0.4–0.8 ng/mL Aβ42, Figures 2A,B
T1 construct: made in house; host or cells: E. coli BL21 Rosetta2
T1 sequence (P28329 1-630 isoform P28329-3): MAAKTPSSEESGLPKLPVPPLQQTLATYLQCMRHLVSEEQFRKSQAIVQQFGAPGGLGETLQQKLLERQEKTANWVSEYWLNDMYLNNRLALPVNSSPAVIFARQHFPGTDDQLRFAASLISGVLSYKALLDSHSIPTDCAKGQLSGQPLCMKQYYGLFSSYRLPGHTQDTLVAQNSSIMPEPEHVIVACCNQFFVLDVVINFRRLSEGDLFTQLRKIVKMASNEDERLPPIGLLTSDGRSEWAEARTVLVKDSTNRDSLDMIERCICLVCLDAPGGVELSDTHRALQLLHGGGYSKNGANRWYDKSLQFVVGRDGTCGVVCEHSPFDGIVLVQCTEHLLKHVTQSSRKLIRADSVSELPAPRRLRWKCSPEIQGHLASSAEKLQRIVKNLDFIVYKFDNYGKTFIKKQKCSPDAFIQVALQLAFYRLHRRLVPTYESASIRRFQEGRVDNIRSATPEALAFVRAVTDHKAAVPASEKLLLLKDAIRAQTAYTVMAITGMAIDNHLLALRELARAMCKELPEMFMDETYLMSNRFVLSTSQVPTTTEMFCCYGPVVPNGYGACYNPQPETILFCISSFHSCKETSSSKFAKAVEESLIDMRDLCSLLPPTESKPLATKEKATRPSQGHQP
Description: Recombinant ChAT was purified as described previously ([Kumar et al., 2016a], [2017]). Briefly, DYT media was inoculated with an O/N culture of E. coli BL21 Rosetta2 transformed with pProExHTa-ChAT (a gift from Dr. Brian Shilton, Department of Biochemistry, University of Western Ontario, London, ON, Canada). The bacteria were grown in shaking incubator at 37°C with 200 rpm until the optical density at 600 nm reached 0.5. After which, 0.5 mM IPTG was added and His6-ChAT was expressed for approximately 16 h at 18°C. Next, the cells were harvested and His6-ChAT was purified with “Ni-NTA fast start Kit” (Qiagen) following the manufacturer’s instructions. The elution buffer was exchanged to storage buffer [10 mM Tris pH 7.4, 500 mM NaCl, 10% (v/v) glycerol] using 30 kDa molecular weight cutoff Amicon Ultra concentrators (Merck Millipore). The purity and molecular weight of the protein were determined using SDS-PAGE electrophoresis. The total protein concentration was determined using DC Protein Assay (Bio-Rad). The purified protein was aliquoted and stored at −80°C.
ChAT activity was measured with our newly developed robust in-house fluorometric assay, using human rChAT protein. […] The reagents, choline chloride (C7017), acetyl coenzyme-A (ACoA, A2181), 7-diethylamino-3-(4-maleimidophenyl)-4-methylcoumarin (CPM) (C1484), thioflavin-T (ThT; T3516), and gelatin (G7041) were purchased from Sigma-Aldrich (St. Louis, MO, United States).
Then, 50 μL of a cocktail-A [dilution buffer containing 10 μM ACoA (final concentration) and 15 μM CPM (final concentration)] was added to each well. Immediately after adding the cocktail-A, the changes in fluorescence were monitored kinetically at 479 nm emission wavelength after exciting at 390 nm wavelength, at 1- to 2-min intervals for 15–20 min using a microplate spectrophotometer reader (Infinite M1000, Tecan).
Each Aβ peptide dilution was run in triplicates. On each 96-wells plate, several enzyme wells without Aβ were also included as positive controls and for estimating the activation level by Aβ peptides. Negative controls were wells without enzyme, but with all the other above-mentioned reagents. The kinetic rate of enzyme activity (as ΔRFU/min slope data) was calculated and processed using the GraphPad Prism 7 analysis software. The actual rate values as well as statistical analysis values (P-values) of ChAT activity at different Aβ concentrations or alone were calculated after fitting the curve with the linear regression function in the GraphPad Prism 7. […]

[2] = Thioflavin-T (ThT) fluorescence Aβ fibrillization assay; assay type: physicochemical; details: 800 ng/mL Aβ40, 100 ng/mL Aβ42; ThT 1 μM, pH 7.4, 37°C overnight, ex 450/em 485 nm, ChAT, choline and ACoA as in activity assay; method: quadruplicate, legend: mean ± SEM of three readings
Description: The ThT fluorescence assay was used to ensure that the Aβ peptides remained soluble during the aforementioned experimental setups. The ThT fluorescence assay was performed in 96-well black plates with a transparent bottom, as described before ([Kumar et al., 2016b]). […] The concentration of ChAT, choline, and ACoA were as used in the aforementioned experiments. To each well, 100 μL/well of a 1 μM ThT solution was added, the plate was then carefully sealed and the changes in fluorescence were monitored from the bottom of the wells, at an emission and excitation wavelengths of 485 nm and 450 nm, respectively, at 15-min intervals at 37°C for an overnight duration, using a microplate spectrophotometer reader (Infinite M1000, Tecan). Each Aβ peptide concentration was run in quadruplicate. Several wells with Aβ alone were also included as control, and wells without ThT were used as negative controls.

[3] = system: cultured cholinergic neurons; details: high nanomolar concentration; ref Pedersen et al., 1996; Hoshi et al., 1997; Kar et al., 1998; Nunes-Tavares et al., 2012; cited from earlier work
From the text: The functional relationship between Aβ and the cholinergic system, especially ChAT, is quite complex and still need further exploration to gain a better understanding of Aβ native function and role in AD pathology.

| rate of ChAT activity in the presence of Aβ42 ([1]; 0.16 ng/mL Aβ42, rChAT 0.146 μg/mL, 150 μM choline chloride, 10 μM ACoA, 15 μM CPM, 30 min room temperature, pH 7.4, no gelatin, mean ± SD of ≥2 readings, control (ChAT alone) 53.8 ± 1.11, F = 98.5, p < 0.0001) | difference in slopes of ChAT rate vs gelatin control ([1]; 1 mg/mL gelatin) | effect on increases in ChAT activity at the higher Aβ concentration points [1] | concentration range giving the highest level of ChAT activation in the mixture [1] [ng/mL] | change in ChAT activity by gelatin ([1]; gelatin 0.5 to 4 mg/mL, Figure 4A, mean ± SD of four readings) | rate of ChAT activity in the presence of Aβ40 ([1]; 6.4 ng/mL Aβ40, rChAT 0.146 μg/mL, 150 μM choline chloride, 10 μM ACoA, 15 μM CPM, 30 min room temperature, pH 7.4, no gelatin, mean ± SD of ≥2 readings, control (ChAT alone) 26.06 ± 1.07, F = 33.21, p < 0.0001) | difference in elevations or intercepts of ChAT rate vs gelatin control ([1]; 1 mg/mL gelatin, 6.4 ng/mL Aβ40, F = 9.2, p < 0.004) | concentration at which the increase in ChAT activity reaches a plateau ([1]; no gelatin, dilution series 0–800 ng/mL Aβ40, 0–100 ng/mL Aβ42) [ng/mL] | Substance | direction of effect on ChAT activity at high concentrations [1] | effect on ChAT activity at physiological concentrations ([1]; no gelatin) | difference in ThT fluorescence intensity vs control wells (no Aβ) [2] | reduction in ACh synthesis [3] | effect of gelatin on ChAT activity ([1]; gelatin 0 to 4 mg/mL, mean ± SD of four readings) | overall effect on ChAT across experiments ([1]; some experiments vs others) |
| --- | --- | --- | --- | --- | --- | --- | --- | --- | --- | --- | --- | --- | --- | --- |
| 71.6 ± 1.41 ΔRFU/min | statistically highly significant | started to decline | 0.12 to 0.64 | – | – | – | – | Aβ42: amyloid-β peptide, recombinant, purchased from rPeptide (Cat no. A-1166-1) | activation of ChAT | able to increase the activity of ChAT at physiological concentrations | no significant differences in the ThT fluorescence intensity | 40–50% | – | – |
| – | – | – | – | −5% to +9 | – | – | – | gelatin [reference compound] | – | – | – | – | slight increase in the rate of ChAT activity within the 0.5–2 mg/mL gelatin concentration range; also recorded: no significant effect on ChAT activity | – |
| – | not statistically significant | started to decline | 1.3 to 6.4 | – | 36.5 ± 1.48 ΔRFU/min | significant | ~32 | Aβ40: amyloid-β peptide, recombinant, purchased from rPeptide (Cat no. A-1153-1) | inhibition of ChAT rather than activation | able to increase the activity of ChAT at physiological concentrations | no significant differences in the ThT fluorescence intensity | – | – | inhibited ChAT in some experiments, while in others it enhanced its activity |
